This note sets out measurements from US20260209386A1 (MYTHIC THERAPEUTICS, published 2026).

B1: MYT11287 (antibody, V domains shown)
VH: EVQLVESGGGLVQPGGSLRLSCTASGIDLSRYSMGWVRQAPGKGLEWVGIISYGGSTYYASWAKGRFTISRDTSKNTVYLQMNSLRAEDTAVYFCARVGYPGHSGYGYAFDAFDPWGQGTLVTVSS
VL: EIVMTQSPSTLSASVGDRVIITCQSSKSVYNDNWLSWYQQKPGKAPKLLIYGASTLASGVPSRFSGSGSGAEFTLTISSLQPDDFATYYCAGGYSSSSDNGFGQGTKLTVL
B2: MYT11307 (antibody, V domains shown)
VH: EVQLVESGGGLVQPGGSLRLSCTASGIDLSRYSMGWVRQAPGKGLEWVGIISYGGSTYYASWAKGRFTISRDTSKNTVYLQMNSLRAEDTAVYFCARVGYPGYSGYGYAFDAFDPWGQGTLVTVSS
VL: EIVMTQSPSTLSASVGDRVIITCQSSHSVYNDNWLSWYQQKPGKAPKLLIYGASTLASGVPSRFSGSGSGAEFTLTISSLQPDDFATYYCAGGYSSSSDNGFGQGTKLTVL
B3: MYT11324 (antibody, V domains shown)
VH: EVQLVESGGGLVQPGGSLRLSCTASGIDLSRYSMGWVRQAPGKGLEWVGIISYGGSTYYASWAKGRFTISRDTSKNTVYLQMNSLRAEDTAVYFCARVGYPGYSGYGYAFDAFDPWGQGTLVTVSS
VL: EIVMTQSPSTLSASVGDRVIITCQSSKSVYNDNWLSWYQQKPGKAPKLLIYGASTLASGVPSRFSGSGSGAEFTLTISSLQPDDFATYYCHGGYSSSSDNGFGQGTKLTVL
B4: MYT11293 (antibody, V domains shown)
VH: EVQLVESGGGLVQPGGSLRLSCTASGIDLSRYSMGWVRQAPGKGLEWVGIISYGGSTYYASWAKGRFTISRDTSKNTVYLQMNSLRAEDTAVYFCARVGYPGYSGYGYHFDAFDPWGQGTLVTVSS
VL: EIVMTQSPSTLSASVGDRVIITCQSSKSVYNDNWLSWYQQKPGKAPKLLIYGASTLASGVPSRFSGSGSGAEFTLTISSLQPDDFATYYCAGGYSSSSDNGFGQGTKLTVL
B5: MYT11294 (antibody, V domains shown)
VH: EVQLVESGGGLVQPGGSLRLSCTASGIDLSRYSMGWVRQAPGKGLEWVGIISYGGSTYYASWAKGRFTISRDTSKNTVYLQMNSLRAEDTAVYFCARVGYPGYSGYGYAHDAFDPWGQGTLVTVSS
VL: EIVMTQSPSTLSASVGDRVIITCQSSKSVYNDNWLSWYQQKPGKAPKLLIYGASTLASGVPSRFSGSGSGAEFTLTISSLQPDDFATYYCAGGYSSSSDNGFGQGTKLTVL
B6: MYT11303 (antibody, V domains shown)
VH: EVQLVESGGGLVQPGGSLRLSCTASGIDLSRYSMGWVRQAPGKGLEWVGIISYGGSTYYASWAKGRFTISRDTSKNTVYLQMNSLRAEDTAVYFCARVGYPGYSGYGYAFDAFAPWGQGTLVTVSS
VL: EIVMTQSPSTLSASVGDRVIITCQSSKSVYNDNWLSWYQQKPGKAPKLLIYGASTLASGVPSRFSGSGSGAEFTLTISSLQPDDFATYYCAGGYSSSSDNGFGQGTKLTVL
B7: MYT11305 (antibody, V domains shown)
VH: EVQLVESGGGLVQPGGSLRLSCTASGIDLSRYSMGWVRQAPGKGLEWVGIISYGGSTYYASWAKGRFTISRDTSKNTVYLQMNSLRAEDTAVYFCARVGYPGYSGYGYAFDAFDPWGQGTLVTVSS
VL: EIVMTQSPSTLSASVGDRVIITCQHSKSVYNDNWLSWYQQKPGKAPKLLIYGASTLASGVPSRFSGSGSGAEFTLTISSLQPDDFATYYCAGGYSSSSDNGFGQGTKLTVL
B8: MYT11292 (antibody, V domains shown)
VH: EVQLVESGGGLVQPGGSLRLSCTASGIDLSRYSMGWVRQAPGKGLEWVGIISYGGSTYYASWAKGRFTISRDTSKNTVYLQMNSLRAEDTAVYFCARVGYPGYSGYGHAFDAFDPWGQGTLVTVSS
VL: EIVMTQSPSTLSASVGDRVIITCQSSKSVYNDNWLSWYQQKPGKAPKLLIYGASTLASGVPSRFSGSGSGAEFTLTISSLQPDDFATYYCAGGYSSSSDNGFGQGTKLTVL
B9: MYT11291 (antibody, V domains shown)
VH: EVQLVESGGGLVQPGGSLRLSCTASGIDLSRYSMGWVRQAPGKGLEWVGIISYGGSTYYASWAKGRFTISRDTSKNTVYLQMNSLRAEDTAVYFCARVGYPGYSGYHYAFDAFDPWGQGTLVTVSS
VL: EIVMTQSPSTLSASVGDRVIITCQSSKSVYNDNWLSWYQQKPGKAPKLLIYGASTLASGVPSRFSGSGSGAEFTLTISSLQPDDFATYYCAGGYSSSSDNGFGQGTKLTVL
B10: MYT11315 (antibody, V domains shown)
VH: EVQLVESGGGLVQPGGSLRLSCTASGIDLSRYSMGWVRQAPGKGLEWVGIISYGGSTYYASWAKGRFTISRDTSKNTVYLQMNSLRAEDTAVYFCARVGYPGYSGYGYAFDAFDPWGQGTLVTVSS
VL: EIVMTQSPSTLSASVGDRVIITCQSSKSVYNDNWHSWYQQKPGKAPKLLIYGASTLASGVPSRFSGSGSGAEFTLTISSLQPDDFATYYCAGGYSSSSDNGFGQGTKLTVL
B11: MYT11310 (antibody, V domains shown)
VH: EVQLVESGGGLVQPGGSLRLSCTASGIDLSRYSMGWVRQAPGKGLEWVGIISYGGSTYYASWAKGRFTISRDTSKNTVYLQMNSLRAEDTAVYFCARVGYPGYSGYGYAFDAFDPWGQGTLVTVSS
VL: EIVMTQSPSTLSASVGDRVIITCQSSKSVHNDNWLSWYQQKPGKAPKLLIYGASTLASGVPSRFSGSGSGAEFTLTISSLQPDDFATYYCAGGYSSSSDNGFGQGTKLTVL
B12: MYT11297 (antibody, V domains shown)
VH: EVQLVESGGGLVQPGGSLRLSCTASGIDLSRYSMGWVRQAPGKGLEWVGIISYGGSTYYASWAKGRFTISRDTSKNTVYLQMNSLRAEDTAVYFCARVGYPGYSGYGYAFDAHDPWGQGTLVTVSS
VL: EIVMTQSPSTLSASVGDRVIITCQSSKSVYNDNWLSWYQQKPGKAPKLLIYGASTLASGVPSRFSGSGSGAEFTLTISSLQPDDFATYYCAGGYSSSSDNGFGQGTKLTVL
B13: MYT11316 (antibody, V domains shown)
VH: EVQLVESGGGLVQPGGSLRLSCTASGIDLSRYSMGWVRQAPGKGLEWVGIISYGGSTYYASWAKGRFTISRDTSKNTVYLQMNSLRAEDTAVYFCARVGYPGYSGYGYAFDAFDPWGQGTLVTVSS
VL: EIVMTQSPSTLSASVGDRVIITCQSSKSVYNDNWLHWYQQKPGKAPKLLIYGASTLASGVPSRFSGSGSGAEFTLTISSLQPDDFATYYCAGGYSSSSDNGFGQGTKLTVL
B14: MYT11321 (antibody, V domains shown)
VH: EVQLVESGGGLVQPGGSLRLSCTASGIDLSRYSMGWVRQAPGKGLEWVGIISYGGSTYYASWAKGRFTISRDTSKNTVYLQMNSLRAEDTAVYFCARVGYPGYSGYGYAFDAFDPWGQGTLVTVSS
VL: EIVMTQSPSTLSASVGDRVIITCQSSKSVYNDNWLSWYQQKPGKAPKLLIYGASTHASGVPSRFSGSGSGAEFTLTISSLQPDDFATYYCAGGYSSSSDNGFGQGTKLTVL

This assay concerns the target T1, Human PTK7 (human, UniProt Q13308 31-1070).
T1 sequence: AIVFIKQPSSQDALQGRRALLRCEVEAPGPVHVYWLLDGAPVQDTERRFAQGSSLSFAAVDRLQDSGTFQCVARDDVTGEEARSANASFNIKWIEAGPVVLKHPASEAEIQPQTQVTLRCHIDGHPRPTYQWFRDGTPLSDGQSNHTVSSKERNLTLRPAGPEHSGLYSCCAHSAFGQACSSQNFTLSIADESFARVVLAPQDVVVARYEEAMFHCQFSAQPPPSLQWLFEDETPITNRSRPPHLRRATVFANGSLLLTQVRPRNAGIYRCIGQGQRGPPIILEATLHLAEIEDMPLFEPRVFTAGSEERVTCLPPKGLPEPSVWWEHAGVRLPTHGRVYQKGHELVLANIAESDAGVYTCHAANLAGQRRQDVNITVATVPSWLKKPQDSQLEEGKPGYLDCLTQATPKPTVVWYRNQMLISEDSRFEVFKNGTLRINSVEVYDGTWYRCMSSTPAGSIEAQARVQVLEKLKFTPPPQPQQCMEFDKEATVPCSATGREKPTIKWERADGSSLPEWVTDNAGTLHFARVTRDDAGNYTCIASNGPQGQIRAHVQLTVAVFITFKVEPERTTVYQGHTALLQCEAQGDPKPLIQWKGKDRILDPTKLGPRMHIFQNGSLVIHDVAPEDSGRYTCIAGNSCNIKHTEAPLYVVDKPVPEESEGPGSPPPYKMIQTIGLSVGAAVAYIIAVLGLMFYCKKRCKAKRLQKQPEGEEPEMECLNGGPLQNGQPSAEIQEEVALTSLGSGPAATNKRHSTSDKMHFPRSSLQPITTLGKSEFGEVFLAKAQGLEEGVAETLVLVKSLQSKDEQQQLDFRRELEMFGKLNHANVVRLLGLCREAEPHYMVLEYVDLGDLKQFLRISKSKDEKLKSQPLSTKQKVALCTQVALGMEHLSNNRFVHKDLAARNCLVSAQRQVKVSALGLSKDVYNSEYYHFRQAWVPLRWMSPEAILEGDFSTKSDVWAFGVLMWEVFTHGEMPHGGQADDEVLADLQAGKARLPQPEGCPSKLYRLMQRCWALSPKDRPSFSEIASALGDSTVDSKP
The assay is described as follows: cell-based or functional assay.
Take B1: the “Internalization, FOW @ 25 nM (fold over the wildtype, parental antibody)” value was 1.71 fold over parental antibody.

As to B2, the “Internalization, FOW @ 25 nM (fold over the wildtype, parental antibody)” value was 1.82 fold over parental antibody.

Take B3: the “Internalization, FOW @ 25 nM (fold over the wildtype, parental antibody)” value is 1.58 fold over parental antibody.

Regarding B4, the “Internalization, FOW @ 25 nM (fold over the wildtype, parental antibody)” value is 1.65 fold over parental antibody.

With B5, the “Internalization, FOW @ 25 nM (fold over the wildtype, parental antibody)” value is 1.66 fold over parental antibody.

As for B6, the “Internalization, FOW @ 25 nM (fold over the wildtype, parental antibody)” value is 1.51 fold over parental antibody.

Consider B7, for which the “Internalization, FOW @ 25 nM (fold over the wildtype, parental antibody)” value was 1.37 fold over parental antibody.

On to B8, for which the “Internalization, FOW @ 25 nM (fold over the wildtype, parental antibody)” value was 1.59 fold over parental antibody.

For the molecule B9, the “Internalization, FOW @ 25 nM (fold over the wildtype, parental antibody)” value was 1.53 fold over parental antibody.

With B10, the “Internalization, FOW @ 25 nM (fold over the wildtype, parental antibody)” value is 1.51 fold over parental antibody.

Consider B11, for which the “Internalization, FOW @ 25 nM (fold over the wildtype, parental antibody)” value is 1.64 fold over parental antibody.

Turning to B12, the “Internalization, FOW @ 25 nM (fold over the wildtype, parental antibody)” value is 1.51 fold over parental antibody.

On to B13, for which the “Internalization, FOW @ 25 nM (fold over the wildtype, parental antibody)” value was 1.55 fold over parental antibody.

As to B14, the “Internalization, FOW @ 25 nM (fold over the wildtype, parental antibody)” value was 1.36 fold over parental antibody.
